The numbers were not newly measured in article PMC8044989, which cites them from elsewhere.

This data set addresses RXFP3 (Homo sapiens) (UniProt Q9NSD7).
UniProt Q9NSD7, sequence (Q9NSD7 whole entry): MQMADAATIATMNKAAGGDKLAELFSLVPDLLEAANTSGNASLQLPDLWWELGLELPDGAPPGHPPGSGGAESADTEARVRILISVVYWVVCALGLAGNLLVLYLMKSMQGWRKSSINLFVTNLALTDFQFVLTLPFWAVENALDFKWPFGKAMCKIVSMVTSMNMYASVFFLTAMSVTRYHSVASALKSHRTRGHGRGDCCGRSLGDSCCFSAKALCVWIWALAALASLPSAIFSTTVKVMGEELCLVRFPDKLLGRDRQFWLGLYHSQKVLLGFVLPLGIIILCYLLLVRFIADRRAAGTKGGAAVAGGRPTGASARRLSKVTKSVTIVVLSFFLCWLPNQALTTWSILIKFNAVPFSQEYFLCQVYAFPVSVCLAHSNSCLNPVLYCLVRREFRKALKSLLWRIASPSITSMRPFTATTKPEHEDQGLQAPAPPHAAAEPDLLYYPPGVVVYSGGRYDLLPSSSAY

A word on the Kd: it is the constant that tells how readily two partners part at equilibrium. As to relaxin-3 (from UniProt Q8WXF3), the dissociation constant (Kd) was 0.3 nM.
